The target in the assay is T1, human MLH1 protein (hMLH1) (human, UniProt P40692 1-756, limits assumed).
T1 construct: Translated in vitro for the MBP-hPMS1 column assay
T1 sequence: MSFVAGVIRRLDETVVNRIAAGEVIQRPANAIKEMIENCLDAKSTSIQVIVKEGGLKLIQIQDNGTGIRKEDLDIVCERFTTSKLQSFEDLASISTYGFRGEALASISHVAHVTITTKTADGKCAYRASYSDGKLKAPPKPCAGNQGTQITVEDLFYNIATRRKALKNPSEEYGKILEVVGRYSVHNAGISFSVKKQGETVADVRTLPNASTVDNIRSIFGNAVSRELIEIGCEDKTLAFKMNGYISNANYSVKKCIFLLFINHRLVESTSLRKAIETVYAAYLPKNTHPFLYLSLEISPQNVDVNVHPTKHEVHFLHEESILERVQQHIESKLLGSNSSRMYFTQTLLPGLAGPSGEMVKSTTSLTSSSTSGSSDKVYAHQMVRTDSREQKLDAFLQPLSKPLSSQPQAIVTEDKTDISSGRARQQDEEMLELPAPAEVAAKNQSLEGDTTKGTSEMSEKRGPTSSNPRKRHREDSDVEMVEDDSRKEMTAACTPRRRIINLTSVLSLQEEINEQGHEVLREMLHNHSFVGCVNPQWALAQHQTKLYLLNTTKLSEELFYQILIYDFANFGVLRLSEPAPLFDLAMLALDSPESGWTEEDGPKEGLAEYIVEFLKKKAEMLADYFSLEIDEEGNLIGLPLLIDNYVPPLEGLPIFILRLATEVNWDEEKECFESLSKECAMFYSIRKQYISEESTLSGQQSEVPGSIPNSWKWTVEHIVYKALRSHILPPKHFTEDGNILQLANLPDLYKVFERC
The assay can be described thus: yeast two-hybrid system.

B1: human PMS1 protein (hPMS1) (other)
chain: MERAESSSTEPAKAIKPIDRKSVHQICSGQVVLSLSTAVKELVENSLDAGATNIDLKLKDYGVDLIEVSDNGCGVEEENFEGLTLKHHTSKIQEFADLTQVETFGFRGEALSSLCALSDVTISTCHASAKVGTRLMFDHNGKIIQKTPYPRPRGTTVSVQQLFSTLPVRHKEFQRNIKKEYAKMVQVLHAYCIISAGIRVSCTNQLGQGKRQPVVCIGGSPSIKENIGSVFGQKQLQSLIPFVQLPPSDSVCEEYGLSCSDALHNLFYISGFISQCTHGVGRSSTDRQFFFINRRPCDPAKVCRLVNEVYHMYNRHQYPFVVLNISVDSECVDINVTPDKRQILLQEEKLLLAVLKTSLIGMFDSDVNKLNVSQQPLLDVEGNLIKMHAADLEKPMVEHQDQSPSLRIGEEKKDVSISRLREAFSLRHTTENKPHSPKTPEPRRSPLGQKRGMLSSSTSGAISDKGVLRSQKEAVSSSHGPSDPTDRAEVEKDSGHGSTSVDSEGFSIPDTGSHCSSEYAASSPGDRGSQEHVDSQEKAPETDDSFSDVDCHSNQEDTGCKFRVLPQPINLATPNTKRFKKEEILSSSDICQKLVNTQDMSASQVDVAVKINKKVVPLDFSMSSLAKRIKQLHHEAQQSEGEQNYRKFRAKICPGENQAAEDELRKEISKTMFAEMEIIGQFNLGFIITKLNEDIFIVDQHATDEKYNFEMLQQHTVLQGQRLIAPQTLNLTAVNEAVLIENLEIFRKNGFDFVIDENAPVTERAKLISLPTSKNWTFGPQDVDELIFMLSDSPGVMCRPSRVKQMFASRACRKSVMIGTALNTSEMKKLITHMGEMGHPWNCPHGRPTMRHIANLGVISQN
notes: Synthesized in vitro for the MBP column assay
In the case of B1, the binding result is reported as “binds”.

Values taken from patent US20030224463A1 (Dana-Farber, published 2003).
